The results in this text go back to paper PMC3590194.

The subject of this data set is bivalirudin (Angiomax), TMR-labeled (synthetic). As to the kind of experiment: fluorescence anisotropy. The following applies: 5 mM Mg2+?; BB = PBS (no MgCl2/CaCl2) with 5 mM MgCl2 (flow cytometry, 1 h incubation; FA buffer not stated in the material); pH and binding temperature not stated.

Broadly, the Kd is the equilibrium constant for the complex coming apart. Low readings indicate higher affinity, high ones lower affinity. “ATCGTCTGCTCCGTCCAATACGTAACATCCCCGTAATACTACTACGGTCGTGCTGGTTTGGTGTGAGGTCGTGC [JPB2]” registered a Kd of 5.99 µM.

“ATCGTCTGCTCCGTCCAATATATTGTGTGACCCCCCTCTTGTTTTGGTGTGAGGTCGTGC [JPB5]” displayed a Kd of 5.76 µM.
